# Data published in PMC8280106 (2021).
# B1: extracellular domain of CD147 (CD147^ECD) [human] / Trefoil factor 3 (TFF3), recombinant mature form (residues 22-80) [human] (parent complex)
# chain 1: AAGTVFTTVEDLGSKILLTCSLNDSATEVTGHRWLKGGVVLKEDALPGQKTEFKVDSDDQWGEYSCVFLPEPMGTANIQLHGPPRVKAVKSSEHINEGETAMLVCKSESVPPVTDWAWYKITDSEDKALMNGSESRFFVSSSQGRSELHIENLNMEADPGQYRCNGTSSKGSDQAIITLRVRSH
# chain 2: EEYVGLSANQCAVPAKDRVDCGYPHVTPKECNNRGCCFDSRIPGVPWCFKPLQEAECTF
# Variants of: B1
# Test: SPR (Biacore); value read at end of injection, ~120 s; concentrations not given; read off a plot
row,Variant,response [Ru]
1,chain 1 R145A,~8.7
2,chain 1 V110A,~4.7
3,chain 1 G74A,~4.3
4,chain 1 R33A,~2
5,chain 1 T100A,~14
